Results: patent US20210253679A1 (NATIONAL RESEARCH COUNCIL OF CANADA, published 2021)

B1: Rh34-H2 (VHH)
VHH: EVQLVESGGGLVQPGGSLRLSCAASGRTISLYAVGWFRQAPGKEREFVSAISWTDSSTYYADSVKGRFTISRDNSKNTLYLQMNSLRAEDTAVYYCAADVSIRGLQKYEYDYWGQGTLVTVS
B2: Rh34-H5 (VHH)
VHH: QVQLVESGGGLVQPGGSLRLSCAASGRTISLYAVGWFRRAPGKEREFVAAISWTDSSTYYADSVKGRFTISRDNAKNTVYLQMNSLRAEDTAVYYCAADVSIRGLQKYEYDYWGQGTLVTVS
B3: H18-H4 (VHH)
VHH: QVQLVESGGGLVQPGGSLRLSCAASGSIESINRMAWYRQAPGQQREFVARISKGGSTNYPDSVKGRFTISRDNSKNTLYLQMNSLRAEDTAVYYCAAGPVWEQFWGQGTLVTVSS
B4: H18-H5 (VHH)
VHH: QVQLVESGGGLVQPGGSLRLSCAASGSIESINRMAWYRQAPGQQREFVARISKGGSTNYPDSVKGRFTISRDNAKNTVYLQMNSLRAEDTAVYYCAAGPVWEQFWGQGTLVTVSS
B5: H18-H1 (VHH)
VHH: EVQLVESGGGLVQPGGSLRLSCAASGSIESINRMAWYRQAPGKGLEFVSRISKGGSTNYPDSVKGRFTISRDNSKNTLYLQMNSLRAEDTAVYYCAAGPVWEQFWGQGTLVTVSS
B6: H18-H3 (VHH)
VHH: QVQLVESGGGLVQPGGSLRLSCAASGSIESINRMAWYRQAPGKQREFVARISKGGSTNYPDSVKGRFTISRDNSKNTLYLQMNSLRAEDTAVYYCAAGPVWEQFWGQGTLVTVSS
B7: R11-H1 (VHH)
VHH: EVQLVESGGGLVQPGGSLRLSCAASGFLLRSNTMGWYRQAPGKGLELVSFIRPSGLTNYNDAVQGRFTISRDNSKNTLYLQMNSLRAEDTAVYYCATRPPFQRDSWGQGTLVTVSS
B8: R11-H5 (VHH)
VHH: QVQLVESGGGLVQPGGSLRLSCAGPGFLLRSNTMGWYRQAPGKERELVAFIRPSGLTNYNDAVQGRFTISRDNSKNTLYLQMNSLRAEDTAVYYCHTRPPFQRDSWGQGTLVTVSS
B9: R11-H2 (VHH)
VHH: EVQLVESGGGLVQPGGSLRLSCAASGFLLRSNTMGWYRQAPGKGLELVSFIRPSGLTNYNDAVQGRFTISRDNSKNTLYLQMNSLRAEDTAVYYCHTRPPFQRDSWGQGTLVTVSS
B10: R11-H6 (VHH)
VHH: QVQLVESGGGLVQPGGSLRLSCAGPGFLLRSNTMGWYRQAPGKERELVAFIRPSGLTNYNDAVQGRFTISRDNAKNTVYLQMNSLRAEDTAVYYCHTRPPFQRDSWGQGTLVTVSS
B11: M75-H4 (VHH)
VHH: QVQLVESGGGLVQPGGSLRLSCAASGRTFDNYVMAWFRQAPGKEREFVASISGSGSITNYANSVKDRFTISRDSSKNALYLQMNSLRAEDTAVYYCAAGSRRTYYREPKFYPSWGQGTLVTVSS
B12: M75-H2 (VHH)
VHH: EVQLVESGGGLVQPGGSLRLSCAASGRTFDNYVMAWFRQAPGKEREFVSSISGSGSITNYANSVKDRFTISRDNSKNTLYLQMNSLRAEDTAVYYCAAGSRRTYYREPKFYPSWGQGTLVTVSS
B13: M75-H3 (VHH)
VHH: QVQLVESGGGLVQPGGSLRLSCAASGRTFDNYVMAWFRQAPGKEREFVASISGSGSITNYANSVKDRFTISRDNSKNTLYLQMNSLRAEDTAVYYCAAGSRRTYYREPKFYPSWGQGTLVTVSS
B14: M75-H5 (VHH)
VHH: QVQLVESGGGLVQPGGSLRLSCAASGRTFDNYVMAWFRQAPGKEREFVASISGSGSITNYANSVKDRFTISRDSAKNAIYLQMNSLRAEDTAVYYCAAGSRRTYYREPKFYPSWGQGTLVTVSS
B15: M75-H1 (VHH)
VHH: EVQLVESGGGLVQPGGSLRLSCAASGRTFDNYVMAWFRQAPGKGLEFVSSISGSGSITNYANSVKDRFTISRDNSKNTLYLQMNSLRAEDTAVYYCAAGSRRTYYREPKFYPSWGQGTLVTVSS
B16: Rh34-H4 (VHH)
VHH: QVQLVESGGGLVQPGGSLRLSCAASGRTISLYAVGWFRRAPGKEREFVAAISWTDSSTYYADSVKGRFTISRDNSKNTLYLQMNSLRAEDTAVYYCAADVSIRGLQKYEYDYWGQGTLVTVSS
B17: Rh34-H3 (VHH)
VHH: QVQLVESGGGLVQPGGSLRLSCAASGRTISLYAVGWFRQAPGKEREFVAAISWTDSSTYYADSVKGRFTISRDNSKNTLYLQMNSLRAEDTAVYYCAADVSIRGLQKYEYDYWGQGTLVTVSS
B18: Rh34-H1 (VHH)
VHH: EVQLVESGGGLVQPGGSLRLSCAASGRTISLYAVGWFRQAPGKGLEFVSAISWTDSSTYYADSVKGRFTISRDNSKNTLYLQMNSLRAEDTAVYYCAADVSIRGLQKYEYDYWGQGTLVTVSS
B19: Rh46-H4 (VHH)
VHH: QVQLVESGGGLVQPGGSLRLSCAASTRTFSSYIMGWFRQAPGKERELVAAISWSGRMTHYADSVKGRFTISRDNSKNTLYLQMNSLRAEDTAIYSCAADRTTAWGAPRSQYDSWGQGTLVTVSS
B20: Rh46-H1 (VHH)
VHH: EVQLVESGGGLVQPGGSLRLSCAASTRTFSSYIMGWFRQAPGKGLELVSAISWSGRMTHYADSVKGRFTISRDNSKNTLYLQMNSLRAEDTAVYYCAADRTTAWGAPRSQYDSWGQGTLVTVSS
B21: Rh46-H3 (VHH)
VHH: QVQLVESGGGLVQPGGSLRLSCAASTRTFSSYIMGWFRQAPGKERELVAAISWSGRMTHYADSVKGRFTISRDNSKNTLYLQMNSLRAEDTAVYYCAADRTTAWGAPRSQYDSWGQGTLVTVSS
B22: Rh46-H5 (VHH)
VHH: QVQLVESGGGLVQPGGSLRLSCAASTRTFSSYIMGWFRQAPGKERELVAAISWSGRMTHYADSVKGRFTISRDNAKNTVYLQMNSLRAEDTAIYSCAADRTTAWGAPRSQYDSWGQGTLVTVSS
B23: Rh46-H2 (VHH)
VHH: EVQLVESGGGLVQPGGSLRLSCAASTRTFSSYIMGWFRQAPGKERELVSAISWSGRMTHYADSVKGRFTISRDNSKNTLYLQMNSLRAEDTAVYYCAADRTTAWGAPRSQYDSWGQGTLVTVS
B24: R28-H2 (VHH)
VHH: EVQLVESGGGLVQPGGSLRLSCAASGRTFIAYAMGWFRQAPGKEREFVSAITNFAGGTTYYADSVKGRFTISRDNSKNTLYLQMNSLRAEDTAVYYCAADRSAQTMRQVRPVLPYWGQGTLVTVSS

What was measured:
human serum albumin [1] = biological target: T1, human serum albumin (human, UniProt P02768 25-609); test: SPR, single cycle kinetics, pH 5.5
T1 construct: also called HSA

rhesus serum albumin [2] = biological target: T2, rhesus serum albumin (rhesus, UniProt Q28522 17-600); test: SPR, single cycle kinetics, pH 5.5
T2 construct: also called RhSA

human serum albumin [3] = biological target: T1, human serum albumin; test: SPR, single cycle kinetics, pH 7.4
rhesus serum albumin [4] = biological target: T2, rhesus serum albumin; test: SPR, single cycle kinetics, pH 7.4
rat serum albumin [5] = biological target: T3, rat serum albumin (rat, UniProt P02770 25-608); test: SPR, single cycle kinetics, pH 7.4
T3 construct: also called RSA

rat serum albumin [6] = biological target: T3, rat serum albumin; test: SPR, single cycle kinetics, pH 5.5

Binder	Kd (human serum albumin [1]) [nM]	Kd (rhesus serum albumin [2]) [nM]	Kd (human serum albumin [3]) [nM]	Kd (rhesus serum albumin [4]) [nM]	binding result (rat serum albumin [5])	binding result (rhesus serum albumin [4])	Kd (rat serum albumin [6]) [nM]	Kd (rat serum albumin [5]) [nM]	binding result (human serum albumin [3])
B1	2320	3080	1330	1470	no binding	–	–	–	–
B2	524	1420	410	589	no binding	–	–	–	–
B3	57.1	72.7	58.6	34.4	no binding	–	–	–	–
B4	46.6	70.7	59.4	91.7	no binding	–	–	–	–
B5	56.3	92.2	52.8	91.5	no binding	–	–	–	–
B6	22.3	57.6	19.1	38.2	no binding	–	–	–	–
B7	–	–	–	–	no binding	no binding	–	–	–
B8	98.2	525	307	643	–	–	160	196	–
B9	–	–	–	–	no binding	no binding	–	–	no binding
B10	67.5	511	252	561	–	–	123	151	–
B11	–	–	2.8	6.7	–	–	–	377	–
B12	–	–	7.8	63.6	–	–	–	2490	–
B13	–	–	4.8	17.7	–	–	–	1260	–
B14	–	–	2.1	4.6	–	–	–	62.4	–
B15	–	–	3.2	6.1	–	–	–	659	–
B16	974	2250	647	739	no binding	–	–	–	–
B17	2310	1810	1370	1260	no binding	–	–	–	–
B18	1560	1920	824	1350	no binding	–	–	–	–
B19	51.5	25.2	237	405	no binding	–	–	–	–
B20	97.7	40.8	583	707	no binding	–	–	–	–
B21	70.3	34	289	415	no binding	–	–	–	–
B22	54.9	24.1	233	343	no binding	–	–	–	–
B23	87.3	44.1	426	456	no binding	–	–	–	–
B24	6.6	668	147	2630	–	–	1	4.1	–
